{"source": "patent US20080076731A1", "about": "(UNIVERSITY OF SOUTH FLORIDA, published 2008)", "binders": {"B1": {"name": "Ly49G2, mouse NK inhibitory receptor (receptor, UniProt Q60654-2 1-267, looked up)", "chain": "MSEQEVTYSTVRFHESSRLQKLVRTEEPQRPREACYREYSVPWKLIVIACGILCFLLLVTVALLAITIFQHSQQKHELQETLNCHDNCSPTQSDVNLKDELLRNKSIECRPGNDLLESLSRDQNRWYSETKTFSDSSQHTGRGFEKYWFCYGIKCYYFNMDRKTWSGCKQTCQISSLSLLKIDNEDELKFLQNLAPSDISWIGLSYDNKKKDWVWIDNGPSKLALNTTKYNIRDGLCMSLSKTRLDNGDCDKSYICICGKRLDKFPH", "notes": "Immunoprecipitated with anti-Ly49G2 (4D11)"}}, "molecular_target": "T1, SH2-containing inositol-5-phosphatase (SHIP), mouse, endogenous protein in NK cell lysates (mouse, UniProt Q9ES52 1-1191, limits assumed)", "T1 construct": "Endogenous protein co-immunoprecipitated from NK-enriched C57BL6/J splenocyte lysates (modified RIPA buffer) and detected by Western blot with anti-SHIP P2C6; also called SH2-containing Inositol Polyphosphatase; 135/145 kD SHIP isoforms", "T1 sequence (looked up)": "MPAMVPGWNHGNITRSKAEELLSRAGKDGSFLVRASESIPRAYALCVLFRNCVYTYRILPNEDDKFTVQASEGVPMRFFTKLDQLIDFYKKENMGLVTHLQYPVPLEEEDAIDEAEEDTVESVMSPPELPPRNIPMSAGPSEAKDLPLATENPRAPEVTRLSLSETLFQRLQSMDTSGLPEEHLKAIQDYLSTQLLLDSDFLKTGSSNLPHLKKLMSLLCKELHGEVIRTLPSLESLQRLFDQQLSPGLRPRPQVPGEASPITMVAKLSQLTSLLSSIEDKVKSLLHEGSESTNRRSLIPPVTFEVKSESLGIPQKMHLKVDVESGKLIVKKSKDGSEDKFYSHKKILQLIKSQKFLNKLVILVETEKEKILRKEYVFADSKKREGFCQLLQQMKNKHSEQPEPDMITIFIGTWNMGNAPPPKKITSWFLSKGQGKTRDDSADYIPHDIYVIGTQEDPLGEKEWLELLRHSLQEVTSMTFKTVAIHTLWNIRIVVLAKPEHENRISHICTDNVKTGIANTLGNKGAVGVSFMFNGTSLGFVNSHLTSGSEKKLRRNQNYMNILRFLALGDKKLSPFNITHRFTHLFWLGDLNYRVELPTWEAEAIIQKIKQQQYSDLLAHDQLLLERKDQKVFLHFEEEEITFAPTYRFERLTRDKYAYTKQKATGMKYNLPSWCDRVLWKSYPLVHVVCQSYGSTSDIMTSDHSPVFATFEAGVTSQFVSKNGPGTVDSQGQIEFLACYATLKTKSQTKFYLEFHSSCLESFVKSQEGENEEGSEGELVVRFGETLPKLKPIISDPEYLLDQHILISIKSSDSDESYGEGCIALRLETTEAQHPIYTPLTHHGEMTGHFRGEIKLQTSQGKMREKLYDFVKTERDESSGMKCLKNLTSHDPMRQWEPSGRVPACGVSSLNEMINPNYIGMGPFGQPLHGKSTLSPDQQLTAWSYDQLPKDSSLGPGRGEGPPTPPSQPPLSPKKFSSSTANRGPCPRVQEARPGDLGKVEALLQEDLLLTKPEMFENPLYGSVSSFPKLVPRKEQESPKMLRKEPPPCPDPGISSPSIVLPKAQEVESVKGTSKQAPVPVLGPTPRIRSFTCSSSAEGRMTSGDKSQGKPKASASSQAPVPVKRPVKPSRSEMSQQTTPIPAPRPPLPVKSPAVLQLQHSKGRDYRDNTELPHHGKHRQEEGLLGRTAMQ", "test": "co-immunoprecipitation from NK-enriched splenocyte lysates, Western blot with anti-SHIP P2C6", "excerpt": "Equal quantities of protein from cells lysates prepared from SHIP^{+/+} and SHIP^{-/-} NK cells are resolved on a 4-12% Tris-Bis polyacrylamide gel (Invitrogen), transferred to a nitrocellulose membrane (Amersham) and the filters probed with an anti-Akt-P(Threo) antibody (Cell Signaling) at a 1:1000 dilution. […] The blot is then stripped and reprobed in a similar manner using an anti-β-actin antibody (Cell Signaling) as an internal control for protein loading.\nThus, in FIG. 5, SHIP is shown to be recruited to NK inhibitory receptors and to oppose Akt activation in vivo. […] A mock immunoprecipitation of the NK lysates with an IgG2a antibody is analyzed in parallel as a negative control. The results of these immunoprecipitations are representative of two independent analyses of NK-enriched splenocytes. […] Immunoprecipitation of SHIP from NK cell lysates serves as positive control in both (A) and (B). In (A) a one-tenth exposure of the SHIP lane enables the 135/145 kD SHIP isoforms to be distinguished clearly. […] To control for the amount of cell lysate loaded in each sample, the Akt-P blot is stripped and re-probed with an antibody specific for β-actin, GAPDH, and cc tubulin. […] Immunoprecipitation with a murine IgG2a antibody (IgG2a) is analyzed as a negative control and SHIP is immunoprecipitated as a positive control. […]", "data": [{"binder": "B1", "values": [{"measurement": "binding result", "result": "no binding"}]}]}
